Reference: the supplement of paper PMC10126150
± gives the standard deviation of the averaged measurements.

Test system: ATP
Test: switch fluorescence ratio, 500 uM ATP over buffer (Cy3 cluster intensity, sum of 5 cycles each) (fold (ratio)); higher = stronger signal-on switching upon ATP binding; sequences stand for … in TCGTCGGCAGCGTCAGATGTGTATAAGAGACAGTTTTTTTTTTTTTTTTTTTTTTTTT…TC
Conditions: aptamer strand: ATP DNA aptamer (quencher-CACCTGGGGGAGTATTGCGGAGGAAGG + anchor), 100 nM annealed; ATP concentration: 500 uM
Summary of the method: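 Clusters carrying Cy3-labelled switching strands on a modified Illumina MiSeq flow-cell were annealed to 100 nM quencher-labelled ATP aptamer and imaged in selection buffer. They were imaged again after 15 min with 500 uM ATP at 22 °C, over five buffer/ATP cycles with NaOH stripping and re-annealing in between. For each cluster, the fluorescence ratio is the summed Cy3 intensity of the target cycles divided by that of the buffer cycles, averaged per switch-domain sequence. Clusters outside 100-1000 RFU were left out.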
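Also: ATP exposure 15 min at 22 °C before imaging.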

| Sequence | switch fluorescence ratio |
| --- | --- |
| AGGCCGGGTG | 1.35 ± 0.052 |
| AACTCAGATT | 1.01 ± 0.026 |
| AAAACCGCGA | 1.59 ± 0.28 |
| CAAGTGAAGC | 0.9539 ± 0.005 |
| GCTGTATTTA | 0.974 ± 0.024 |
| CCTAGCCCTT | 1.05 ± 0.054 |
| TTATATCGGT | 0.971 ± 0.011 |
| TTTCCAAAAT | 0.991 ± 0.026 |
| GGCATAATTT | 1.016 ± 0.008 |
| CCGGATGGTG | 1.017 ± 0.0044 |
| GAGGGATTTG | 1 ± 0.03 |
| AGGGGTAACT | 0.996 ± 0.031 |
| ATAGTGACCG | 1.01 ± 0.013 |
| TTTTTTTACG | 1.06 ± 0.041 |
| GGTTATCGAG | 0.975 ± 0.037 |
| AGCACGTTCT | 0.993 ± 0.1 |
| GGTATTTTTT | 0.997 ± 0.025 |
| CGAGGGATCA | 0.9947 ± 0.0011 |
| GGTGGGGTCG | 0.991 ± 0.046 |
| TTAAGCCCAT | 1 ± 0.011 |
| GCGCTCGTAC | 2.27 ± 0.15 |
| TTTAGTATGG | 1.02 ± 0.042 |
| TCATCCCTAT | 1.1 ± 0.15 |

| Sequence | switch fluorescence ratio |
| --- | --- |
| GTTGGCATTT | 1.05 ± 0.092 |
| GCAGGGGATT | 1.01 ± 0.033 |
| TTACTATGTT | 0.999 ± 0.018 |
| ACGGGGATTG | 1.02 ± 0.042 |
| TACAAGGGAT | 0.983 ± 0.013 |
| GGACTAGGAA | 1.01 ± 0.026 |
| CTAGAGGGAT | 1.02 ± 0.038 |
| CGTGTGATGT | 0.973 ± 0.03 |
| CCAGTGTGAG | 1.13 ± 0.039 |
| CCGCTGGGGG | 1.177 ± 0.0036 |
| TCGGCGGGCG | 0.986 ± 0.043 |
| GGACGGTCGG | 1.01 ± 0.052 |
| GTCCGGCTCG | 0.9897 ± 0.0011 |
| CATGCTGGG | 0.992 ± 0.04 |
| TTGCGGCGCT | 1.01 ± 0.043 |
| TGTGTTCCGA | 0.9975 ± 0.0083 |
| GCGTAAGCAG | 0.981 ± 0.012 |
| AGAAAAAGTT | 1.017 ± 0.0048 |
| CCTCTAAGTT | 1.27 ± 0.054 |
| GGGATAGGGA | 1.01 ± 0.045 |
| TTCGTGTTCT | 1 ± 0.03 |
| TGCAGGGGGT | 1.09 ± 0.14 |
| AAGTTTTAGG | 0.988 ± 0.027 |

| Sequence | switch fluorescence ratio |
| --- | --- |
| GAGGTTAGGA | 1 ± 0.012 |
| TTGGTTGGTT | 0.978 ± 0.019 |
| GTCTTTTGTA | 0.983 ± 0.04 |
| AGGTGAAATT | 1.11 ± 0.1 |
| TTGTGTGTAT | 0.992 ± 0.017 |
| GGTGTGGAAT | 1.02 ± 0.033 |
| TACCGTTTAT | 1.02 ± 0.036 |
| TGCGAGTTCT | 1 ± 0.014 |
| GGAGTCGGGG | 1 ± 0.012 |
| ATTAAGTTGA | 0.987 ± 0.041 |
| GAATGGGTAT | 0.979 ± 0.026 |
| TCAATGGTGG | 1.01 ± 0.028 |
| ATTATGTAGA | 0.9958 ± 0.0091 |
| AAAATGAACG | 1.08 ± 0.047 |
| CGCGGGTGGT | 1.02 ± 0.012 |
| TAGGGAGAAT | 0.992 ± 0.054 |
| TAATCAGAGG | 0.994 ± 0.019 |
| TTAATAAGCT | 0.978 ± 0.022 |
| TTTGAGTTTG | 1.009 ± 0.0056 |
| GGCGTCAGGG | 1 ± 0.051 |
| TGTGTTTAGT | 1.01 ± 0.013 |
| CTTAGGGGAT | 1.03 ± 0.047 |
| TGACTGGGCG | 1.0063 ± 0.00065 |

| Sequence | switch fluorescence ratio |
| --- | --- |
| CATGTCGAGC | 1.02 ± 0.059 |
| TTGAGATATG | 0.9989 ± 0.0076 |
| TTGCGGCGGT | 0.983 ± 0.033 |
| TACACTGATA | 1.08 ± 0.043 |
| GAGTTATGTA | 0.997 ± 0.016 |
| GGATAGTAGG | 0.9956 ± 0.0083 |
| TTTTTTGCGC | 1.19 ± 0.29 |
| TCATTGGTAG | 1.001 ± 0.0054 |
| TTGAAAAGAT | 1.05 ± 0.04 |
| CGCTTTGGGT | 0.99 ± 0.018 |
| GTTTCTTTGT | 0.986 ± 0.049 |
| ACCTTTTGTG | 0.9903 ± 0.0046 |
| GGATCCTGCA | 1.04 ± 0.052 |
| AGATTTGGGC | 1.02 ± 0.031 |
| TGACGGGAAG | 0.9862 ± 0.0012 |
| CGGAGGGGTA | 1.13 ± 0.16 |
| ATTATGTCAG | 0.991 ± 0.024 |
| AGCGGGGGAT | 1.01 ± 0.027 |
| TTCACATTTT | 0.9961 ± 0.0026 |
| TTTTTGTTAA | 1.01 ± 0.013 |
| CCTTTGTTGG | 1.01 ± 0.013 |
| TGGGACAGTG | 0.968 ± 0.058 |
| GGGGTAATCT | 0.99977 ± 0.00079 |

| Sequence | switch fluorescence ratio |
| --- | --- |
| AAACTTGGCA | 1.017 ± 0.0088 |
| CGACTTTTAG | 0.959 ± 0.021 |
| TCAATACGTT | 1.09 ± 0.016 |
| AATGGAGATG | 1 ± 0.041 |
| TTCGGGGACG | 0.969 ± 0.052 |
| CGGGGCGGTT | 1 ± 0.032 |
| TTAGCATTTA | 1.03 ± 0.013 |
| TTAGTTAGGT | 1.004 ± 0.0046 |
| CTCGTTTATC | 1.03 ± 0.032 |
| GACGATTGCG | 1.01 ± 0.032 |
| GGAGATGTGG | 0.989 ± 0.011 |
| AGGGCACGGT | 0.983 ± 0.036 |
| AAAAGGACGT | 0.962 ± 0.0056 |
| CCTGAGGAGA | 1.03 ± 0.015 |
| TGGAAAGGAG | 1.02 ± 0.013 |
| GGACTTGGGC | 0.986 ± 0.036 |
| AGAATATCGT | 0.984 ± 0.043 |
| TTTGATATTG | 0.994 ± 0.038 |
| TATCTTTGCG | 0.965 ± 0.01 |
| AGGGTGTTTG | 1.01 ± 0.019 |
| ATAAGTGGGA | 0.986 ± 0.076 |
| AGAGTTTTGG | 0.979 ± 0.025 |
| TTGAAGTCCG | 1.03 ± 0.026 |

| Sequence | switch fluorescence ratio |
| --- | --- |
| AGCGCAATGA | 3 ± 0.32 |
| ACTTAAGAAA | 1.16 ± 0.13 |
| GGAAATGGGG | 0.987 ± 0.11 |
| GGGGCAAGCG | 1.04 ± 0.028 |
| TGAGATCGGC | 0.992 ± 0.042 |
| GTTAGCAAGG | 1.08 ± 0.018 |
| ACCTGATGTC | 1.06 ± 0.015 |
| GGGGATTGTT | 1 ± 0.033 |
| CATCAGGCAC | 1.2 ± 0.023 |
| CTTTGGGCCC | 0.98271 ± 0.0009 |
| CATTTCAGAG | 1.003 ± 0.0062 |
| CTTGTTTTGT | 1.02 ± 0.015 |
| GATTATTTAG | 0.997 ± 0.019 |
| CAGGGGATGC | 0.987 ± 0.067 |
| GGGGGATTAT | 0.992 ± 0.044 |
| TGTTACTCCT | 1.09 ± 0.026 |
| AGGGAAGGAC | 1.03 ± 0.029 |
| TGGTAACAGG | 1.01 ± 0.021 |
| GGAGGGGCGT | 0.993 ± 0.023 |
| AGGATTATGT | 1.01 ± 0.035 |
| AGGGGAGAGA | 1.04 ± 0.014 |
| GAACTAGGTT | 0.9847 ± 0.0035 |
| TACCTTGTCT | 1.04 ± 0.042 |

| Sequence | switch fluorescence ratio |
| --- | --- |
| AGTAAGGATC | 1 ± 0.031 |
| GCAGTTTGGC | 1.01 ± 0.057 |
| GGGAAGGGCA | 1.01 ± 0.049 |
| GGGAGAATGC | 0.939 ± 0.097 |
| AGGTTGGGGT | 1.01 ± 0.036 |
| TTAGGTAACG | 0.977 ± 0.027 |
| GCGGAAAGGG | 0.992 ± 0.021 |
| CCGTTCAGGG | 1.001 ± 0.0045 |
| CGTTGGGAAG | 0.9779 ± 0.0087 |
| TCTGGTACAG | 0.969 ± 0.02 |
| AAATCGTATG | 0.974 ± 0.034 |
| CTGGCATTAT | 1.21 ± 0.038 |
| CGCTTATATC | 2.8 ± 0.32 |
| GCCTGAGGGA | 1.05 ± 0.049 |
| TTTAGAGAGC | 0.987 ± 0.051 |
| TTATTCAAAA | 1 ± 0.023 |
| TCGGAATGTG | 1.01 ± 0.045 |
| TCGGGAGCGT | 1.01 ± 0.033 |
| GGGGCATTAT | 1.06 ± 0.074 |
